Reference: paper PMC6042327 (BMC Biology, 2018)
Numbering of substitutions follows the chain as printed. In names and notes the source's numbering stands.

B1: SGTA NT-TPR (1-213) (domain or fragment, human, UniProt O43765 1-213, looked up)
chain: MDNKKRLAYAIIQFLHDQLRHGGLSSDAQESLEVAIQCLETAFGVTVEDSDLALPQTLPEIFEAAATGKEMPQDLRSPARTPPSEEDSAEAERLKTEGNEQMKVENFEAAVHFYGKAIELNPANAVYFCNRAAAYSKLGNYAGAVQDCERAICIDPAYSKAYGRMGLALSSLNKHVEAVAYYKKALELDPDNETYKSNLKIAELKLREAPSPT
notes: SGTA, human, residues 1-213 (N-terminal dimerisation domain and TPR domain); also called version lacking the C-terminal domain; not shown: thioredoxin A, N-terminal, cleaved; His6, N-terminal, cleaved
B2: SGTA C-terminal domain (CT; residues 213-313) (domain or fragment, human, UniProt O43765 213-313, looked up)
chain: TGGVGSFDIAGLLNNPGFMSMASNLMNNPQIQQLMSGMISGGNNPLGTPGTSPSQNDLASLIQAGQQFAQQMQQQNPELIEQLRSQIRSRTPSASNDDQQE
notes: small glutamine-rich tetratricopeptide repeat-containing protein alpha (SGTA), human, residues 213-313 (complete C-terminal domain); also called C-terminal domain of SGTA; not shown: thioredoxin A, N-terminal, cleaved; His6, N-terminal, cleaved
B3: FL SGTA C153 single-cysteine variant, MTSL spin-labelled (natural protein, human, UniProt O43765 1-313, looked up)
chain: MDNKKRLAYAIIQFLHDQLRHGGLSSDAQESLEVAIQSLETAFGVTVEDSDLALPQTLPEIFEAAATGKEMPQDLRSPARTPPSEEDSAEAERLKTEGNEQMKVENFEAAVHFYGKAIELNPANAVYFSNRAAAYSKLGNYAGAVQDSERAICIDPAYSKAYGRMGLALSSLNKHVEAVAYYKKALELDPDNETYKSNLKIAELKLREAPSPTGGVGSFDIAGLLNNPGFMSMASNLMNNPQIQQLMSGMISGGNNPLGTPGTSPSQNDLASLIQAGQQFAQQMQQQNPELIEQLRSQIRSRTPSASNDDQQE
modifications: MTSL spin label on cysteine 153
notes: SGTA, human, residues 1-313; the other three wild-type cysteines changed to serine, wild-type C153 kept; source: E. coli, prepared in the same way as the wild-type versions, MTSL spin-labelled, size-exclusion chromatography; not shown: thioredoxin A, N-terminal, cleaved; His6, N-terminal, cleaved
B4: FL SGTA S88C single-cysteine mutant, MTSL spin-labelled (natural protein, human, UniProt O43765 1-313, looked up)
chain: B3 chain with S88C, C153S
modifications: MTSL spin label on cysteine 88
notes: SGTA, human, residues 1-313; all four wild-type cysteines changed to serine, then S88C; source: E. coli, prepared in the same way as the wild-type versions, MTSL spin-labelled, size-exclusion chromatography; not shown: thioredoxin A, N-terminal, cleaved; His6, N-terminal, cleaved
B5: FL SGTA S136C single-cysteine mutant, MTSL spin-labelled (natural protein, human, UniProt O43765 1-313, looked up)
chain: B3 chain with S136C, C153S
modifications: MTSL spin label on cysteine 136
notes: SGTA, human, residues 1-313; all four wild-type cysteines changed to serine, then S136C; source: E. coli, prepared in the same way as the wild-type versions, MTSL spin-labelled, size-exclusion chromatography; not shown: thioredoxin A, N-terminal, cleaved; His6, N-terminal, cleaved
B6: FL SGTA S197C single-cysteine mutant, MTSL spin-labelled (natural protein, human, UniProt O43765 1-313, looked up)
chain: B3 chain with C153S, S197C
modifications: MTSL spin label on cysteine 197
notes: SGTA, human, residues 1-313; all four wild-type cysteines changed to serine, then S197C; source: E. coli, prepared in the same way as the wild-type versions, MTSL spin-labelled, size-exclusion chromatography; not shown: thioredoxin A, N-terminal, cleaved; His6, N-terminal, cleaved
B7: SGTA NT-TPR S88C single-cysteine mutant, MTSL spin-labelled (domain or fragment, human, UniProt O43765 1-213, looked up)
chain: B1 chain with C38S, S88C, C129S, C148S, C153S
modifications: MTSL spin label on cysteine 88
notes: SGTA, human, residues 1-213; all four wild-type cysteines changed to serine, then S88C; also called C-terminal deletion mutant S88C; source: E. coli, prepared in the same way as the wild-type versions, MTSL spin-labelled, size-exclusion chromatography; not shown: thioredoxin A, N-terminal, cleaved; His6, N-terminal, cleaved
B8: SGTA NT-TPR S197C single-cysteine mutant, MTSL spin-labelled (domain or fragment, human, UniProt O43765 1-213, looked up)
chain: B1 chain with C38S, C129S, C148S, C153S, S197C
modifications: MTSL spin label on cysteine 197
notes: SGTA, human, residues 1-213; all four wild-type cysteines changed to serine, then S197C; also called C-terminal deletion mutant S197C; source: E. coli, prepared in the same way as the wild-type versions, MTSL spin-labelled, size-exclusion chromatography; not shown: thioredoxin A, N-terminal, cleaved; His6, N-terminal, cleaved
B9: SGTA NT-TPR C153 single-cysteine variant, MTSL spin-labelled (domain or fragment, human, UniProt O43765 1-213, looked up)
chain: B1 chain with C38S, C129S, C148S
modifications: MTSL spin label on cysteine 153
notes: SGTA, human, residues 1-213; the other three wild-type cysteines changed to serine, wild-type C153 kept; also called C-terminal deletion mutant C153; source: E. coli, prepared in the same way as the wild-type versions, MTSL spin-labelled, size-exclusion chromatography; not shown: thioredoxin A, N-terminal, cleaved; His6, N-terminal, cleaved
B10: SGTA NT-TPR S136C single-cysteine mutant, MTSL spin-labelled (domain or fragment, human, UniProt O43765 1-213, looked up)
chain: B1 chain with C38S, C129S, S136C, C148S, C153S
modifications: MTSL spin label on cysteine 136
notes: SGTA, human, residues 1-213; all four wild-type cysteines changed to serine, then S136C; also called C-terminal deletion mutant S136C; source: E. coli, prepared in the same way as the wild-type versions, MTSL spin-labelled, size-exclusion chromatography; not shown: thioredoxin A, N-terminal, cleaved; His6, N-terminal, cleaved

Biological target: the molecule itself
Assay: native MS; protein 5-10 uM in 0.20-0.75 M ammonium acetate pH 7.0, electrosprayed, source temperature 20 °C; self-association (monomer to dimer)

| Protein | stoichiometry N |
| --- | --- |
| B1 | 2 |
| B2 | 2 |

Biological target: the molecule itself
Assay: DEER (EPR) spectroscopy; MTSL spin label on a single cysteine; distances between homologous sites in each monomer; 300-500 uM, D2O buffer with 50% d8-glycerol, flash frozen, measured at 50 K

| Protein | binding result |
| --- | --- |
| B3 | binds |
| B4 | binds |
| B5 | binds |
| B6 | binds |
| B7 | binds |
| B8 | binds |
| B9 | binds |
| B10 | binds |
